Assay results: PMC5924911

Experiments:
[1] = target: VSD-I of human NaV1.4 (residues L114–S246) (human) (UniProt P35499); experiment: NMR titration
NaV1.4 p.R222W channel = NaV1.4 p.R222W channel (UniProt P35499)
NaV1.4 p.R222G channel = NaV1.4 p.R222G channel (UniProt P35499)

Hm-3 toxin from the crab spider Heriaeus melloteei (peptide)
Kd [1]: 6.2 µM | percent of guanidinium-enhanced IGP suppressed by 10 μM Hm-3 at −80 mV, oocytes (NaV1.4 p.R222W channel): 67% | percent of guanidinium-enhanced IGP suppressed by 10 μM Hm-3 at −80 mV, oocytes (NaV1.4 p.R222G channel): 64%
